# Source: IntAct's records for PubMed 23263556
# B1: Nuclear factor of activated T-cells, cytoplasmic 1 (Homo sapiens), O95644 (parent)
# chain: MPSTSFPVPSKFPLGPAAAVFGRGETLGPAPRAGGTMKSAEEEHYGYASSNVSPALPLPTAHSTLPAPCHNLQTSTPGIIPPADHPSGYGAALDGGPAGYFLSSGHTRPDGAPALESPRIEITSCLGLYHNNNQFFHDVEVEDVLPSSKRSPSTATLSLPSLEAYRDPSCLSPASSLSSRSCNSEASSYESNYSYPYASPQTSPWQSPCVSPKTTDPEEGFPRGLGACTLLGSPRHSPSTSPRASVTEESWLGARSSRPASPCNKRKYSLNGRQPPYSPHHSPTPSPHGSPRVSVTDDSWLGNTTQYTSSAIVAAINALTTDSSLDLGDGVPVKSRKTTLEQPPSVALKVEPVGEDLGSPPPPADFAPEDYSSFQHIRKGGFCDQYLAVPQHPYQWAKPKPLSPTSYMSPTLPALDWQLPSHSGPYELRIEVQPKSHHRAHYETEGSRGAVKASAGGHPIVQLHGYLENEPLMLQLFIGTADDRLLRPHAFYQVHRITGKTVSTTSHEAILSNTKVLEIPLLPENSMRAVIDCAGILKLRNSDIELRKGETDIGRKNTRVRLVFRVHVPQPSGRTLSLQVASNPIECSQRSAQELPLVEKQSTDSYPVVGGKKMVLSGHNFLQDSKVIFVEKAPDGHHVWEMEAKTDRDLCKPNSLVVEIPPFRNQRITSPVHVSFYVCNGKRKRSQYQRFTYLPANVPIIKTEPTDDYEPAPTCGPVSQGLSPLPRPYYSQQLAMPPDPSSCLVAGFPPCPQRSTLMPAAPGVSPKLHDLSPAAYTKGVASPGHCHLGLPQPAGEAPAVQDVPRPVATHPGSPGQPPPALLPQQVSAPPSSSCPPGLEHSLCPSSPSPPLPPATQEPTCLQPCSPACPPATGRPQHLPSTVRRDESPTAGPRLLPEVHEDGSPNLAPIPVTVKREPEELDQLYLDDVNEIIRNDLSSTSTHS
# Variants of: B1
# Details: with jak3_human JAK3, P52333
# jak3_human JAK3, P52333, sequence (P52333 whole entry): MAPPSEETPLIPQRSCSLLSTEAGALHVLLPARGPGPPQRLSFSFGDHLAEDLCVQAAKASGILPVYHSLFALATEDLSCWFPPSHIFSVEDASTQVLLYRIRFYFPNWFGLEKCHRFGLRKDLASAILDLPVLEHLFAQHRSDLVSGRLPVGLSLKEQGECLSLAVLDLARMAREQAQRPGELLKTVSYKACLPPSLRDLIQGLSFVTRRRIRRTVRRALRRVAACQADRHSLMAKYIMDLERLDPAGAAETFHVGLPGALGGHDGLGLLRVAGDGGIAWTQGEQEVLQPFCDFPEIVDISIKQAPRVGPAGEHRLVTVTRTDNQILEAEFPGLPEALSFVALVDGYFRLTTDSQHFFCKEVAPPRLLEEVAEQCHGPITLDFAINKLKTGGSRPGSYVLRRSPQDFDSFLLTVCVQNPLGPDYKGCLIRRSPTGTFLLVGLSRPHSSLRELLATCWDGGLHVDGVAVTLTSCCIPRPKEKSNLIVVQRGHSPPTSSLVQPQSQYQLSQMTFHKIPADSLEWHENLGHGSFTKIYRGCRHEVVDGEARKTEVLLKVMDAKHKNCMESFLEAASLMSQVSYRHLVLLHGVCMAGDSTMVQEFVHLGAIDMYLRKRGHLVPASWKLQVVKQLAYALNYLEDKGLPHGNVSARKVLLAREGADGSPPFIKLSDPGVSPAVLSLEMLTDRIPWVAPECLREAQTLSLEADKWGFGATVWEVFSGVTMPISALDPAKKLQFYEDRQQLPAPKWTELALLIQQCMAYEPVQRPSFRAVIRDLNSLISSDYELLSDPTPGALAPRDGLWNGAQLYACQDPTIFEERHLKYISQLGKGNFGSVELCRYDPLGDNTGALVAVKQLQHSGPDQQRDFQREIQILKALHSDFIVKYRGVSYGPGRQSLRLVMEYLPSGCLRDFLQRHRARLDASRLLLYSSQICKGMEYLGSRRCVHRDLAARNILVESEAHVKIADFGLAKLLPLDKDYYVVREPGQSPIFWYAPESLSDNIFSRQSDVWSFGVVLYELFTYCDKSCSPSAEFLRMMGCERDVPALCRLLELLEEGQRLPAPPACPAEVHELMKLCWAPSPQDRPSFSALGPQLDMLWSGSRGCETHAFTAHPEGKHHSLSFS
row,Variant,effect of a mutation on the interaction
1,Y371A,disrupting interaction
